# Reference: US20190322750A1 (Y BIOLOGICS, published 2019)
# B1: PDL1-16E12 (LS/4C9) (antibody, V domains shown)
# VH: QMQLVQSGAEVKKPGSSVKVSCKASGGTFSSYAISWVRQAPGQGLEWMGRIIPILGIANYAQKFQGRVTITADKSTSTAYMELSSLRSEDTAVYYCAKPRDGYNLVAFDIWGQGTMVTVSS
# VL: QLVLTQPPSVSGAPGQRVTISCTGGSSNIGAGYDVHWYQQLPGTAPKLLLFGNTNRPSGVPGRFSGSKSGSSASLAITGLQSDDEADYYCQSYDSSLGGSVIGTGTKVTVL
# notes: also called PD-L1-16E12-4C9
# B2: PDL1-16E12 (LS/4H8) (antibody, V domains shown)
# VH: B1 VH
# VL: QLVLTQPSSVSGAPGQRVTISCTGSSSNIGAGYDVHWYQQLPGTAPKLLIYGNSNRPSGVPDRFSGSKSGTSASLAITGLQAEDEADYYCQSYDSSLSGSGVFGTGTKVTVL
# notes: also called PD-L1-16E12-4H8
# B3: PDL1-31D9 (antibody, V domains shown)
# VH: QMQLVESGGGLVQPGGSLRLSCSASGFTFSSYVMHWVRQAPGKGLEYVSAISSNGGSTYYADSVKGRFTISRDNSKNTLYLQMSSLRSEDTAVYYCAREHFSTYSYGVDVWGPGTTVTVSS
# VL: DIVMTQTPLSLPVTPGEPASISCRSSQSLLDSDDGNTYLDWYLQKPGQSPQLLIYMISFRASGVPDRFSGSGSGTDFTLKISRVEAEDSGIYYCMQRVEFPYTFGQGTKLEIK
# notes: Only FR/CDR pieces are tied to the clone
# B4: PDL1-31E6 (antibody, V domains shown)
# VH: QVQLVQSGAEVKKPGSSVKVSCKASGGTFSSYAISWVRQAPGQGLEWMGGIIPIFGTANYAQKFQGRVTITADESTSTAYMELSSLRSEDTAVYYCARGGRSFGAFDSWGQGALVTVSS
# VL: DIQMTQSPATLSLSPGERATLSCTASQSISSYLAWYQQKPGQAPRLLIYDSSNRATGIPARFSGSGSGTAFTLTISSLEPEDFAVYFCQQRGQWPLTFGGGTKVDIK
# notes: as for B3
# B5: PDL1-22B10 (antibody, V domains shown)
# VH: QVQLVQSGAEVKKPGSSVKVSCRASGGTFSSYAISWVRQAPGQGLEWMGRIIPILGIANYAQKFQGRVTITADKSTSTAYMELSSLRSEDTAVYYCARDFVLSGSATVFDPWGQGTLVTVSS
# VL: QFVLTQPPSVSGAPGQRVTISCTGSSTNIGAGYDVHWYQQLPGKAPKVVIYGNSNRPSGVLDRFSASKSATSASLAITGLQAEDEADYYCQSYDSSLSGYVFGTGTKVTVL
# notes: as for B3
# B6: PDL1-23E10 (scFv, V domains shown)
# VH: QMQLVESGAEVKKPGSSVKVSCKVSGENFRSHAISWVRQAPGQGLEWMGRIIPIVGLADYPQKFQGRVTISADESTGTAYMDLSSLRSEDTAVYYCVTGRPPWHWGQGILITVSS
# VL: QLVLTQPPSVSGAPGQRVTISCTGSSSNIGAGYDVHWYQQLPGTAPKLLIYSNRNRPSGVPDRFSGSKSGTSASLAITGLQAEDEADYYCQSYDSSLSGPNYVFGTGTKVTVL
# B7: PDL1-30B1 (antibody, V domains shown)
# VH: QVQLVESGGGVVQPGRSLRLSCAASGFTFSSYAMHWVRQGPGKGLEWVAVISYDGSNEFYADSVKGRFTISRDNSKNTLYLQMNSLRAEDTAVYYCARGDYNGVYMDVWGQGTTVTVSS
# VL: DIVMTQTPLSLSVTPGQPASISCKSSQSLLHSDGKTYLYWYLQKPGQSPQLLIYEVSKRFSGVPDRFSGSGSGTDFTLKIGRVEAEDVGVYYCMQGLHLPYTFGQGTKLEIK
# notes: as for B3
# Target: T1, PD-L1 on CHO cell line highly expressing PD-L1 (PD-1/PD-L1 blockade bioassay kit, promega J1250) (UniProt Q9NZQ7 19-290, limits assumed)
# T1 sequence (Q9NZQ7 19-290 limits assumed): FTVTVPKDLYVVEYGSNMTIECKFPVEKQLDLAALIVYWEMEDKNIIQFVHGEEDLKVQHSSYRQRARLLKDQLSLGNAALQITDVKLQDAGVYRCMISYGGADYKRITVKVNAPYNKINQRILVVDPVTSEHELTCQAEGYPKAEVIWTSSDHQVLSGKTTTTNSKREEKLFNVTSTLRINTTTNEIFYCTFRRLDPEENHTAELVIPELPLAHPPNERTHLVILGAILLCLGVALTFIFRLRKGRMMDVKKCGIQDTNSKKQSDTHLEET
# Assay: cell-based or functional assay
row,Binder,"Average *EC50 [nM], PD-1/PD-L1 blockade bioassay [nM]"
1,B1,0.39
2,B2,0.36

# Target: T1, PD-L1 on CHO cell line highly …
# Assay: cell-based or functional assay
# Remark: another data set of the same source
Binder,EC50 (first run) [nM],EC50 (second run) [nM]
B1,0.4,0.4
B2,0.43,0.31

# Target: M1
# Assay: ELISA on coated antigen, column M1
# Experimental: (§1) An antigen PD-L1 wild type (WT) or several mutants were coated at a density of 100 ng/well on a 96-well immunoplate at 4° C. for 16 hours and the wells were blocked with 4% skim milk dissolved in PBS. Each well was washed with 0.2 ml of PBS/T, and then a single clone scFv-phage (each […]) cultured for 16 hours was added in a dose of 100 μl to each well and reacted at room temperature for 2 hours. Again, each well was washed 4 times with 0.2 ml of PBS/T, and then the second antibody, anti-Fab, was diluted to 1/2000 and reacted at room temperature for 1 hour. After washing with 0.2 ml of PBS/T, color development was performed and absorbance was measured at 490 nm.
row,Binder,absorbance at 490 nm
1,B3,1.6
2,B4,2.1
3,B5,2.3
4,B6,2.1
5,B7,2.6

# Target: M2
# Assay: ELISA on coated antigen, column M2
# Experimental: as §1
row,Binder,absorbance at 490 nm
1,B3,1.7
2,B4,1.8
3,B5,2.3
4,B6,2.1
5,B7,2.5

# Target: M3
# Assay: ELISA on coated antigen, column M3
row,Binder,absorbance at 490 nm
1,B3,2.5
2,B4,1
3,B5,1
4,B6,0.7
5,B7,2.8

# Target: M4
# Assay: ELISA on coated antigen, column M4
# Experimental: as §1
row,Binder,absorbance at 490 nm
1,B3,1.8
2,B4,2.4
3,B5,0.4
4,B6,0.5
5,B7,2.6

# Target: M5
# Assay: ELISA on coated antigen, column M5
# Experimental: as §1
row,Binder,absorbance at 490 nm
1,B3,1.8
2,B4,2.7
3,B5,2.5
4,B6,2.2
5,B7,2.6

# Target: M6
# Assay: ELISA on coated antigen, column M6
# Experimental: as §1
row,Binder,absorbance at 490 nm
1,B3,1.9
2,B4,2.5
3,B5,2.5
4,B6,2.2
5,B7,2.6

# Target: M7
# Assay: ELISA on coated antigen, column M7
row,Binder,absorbance at 490 nm
1,B3,1.9
2,B4,2.5
3,B5,2.5
4,B6,2.3
5,B7,2.7

# Target: M8
# Assay: ELISA on coated antigen, column M8
# Experimental: as §1
row,Binder,absorbance at 490 nm
1,B3,1.8
2,B4,1.9
3,B5,2.6
4,B6,1
5,B7,2.7

# Target: T2, WT (human, UniProt Q9NZQ7)
# T2 construct: recombinant; also called hPD-L1; antigen PD-L1 wild type (WT)
# T2 sequence (Q9NZQ7 19-238 limits assumed): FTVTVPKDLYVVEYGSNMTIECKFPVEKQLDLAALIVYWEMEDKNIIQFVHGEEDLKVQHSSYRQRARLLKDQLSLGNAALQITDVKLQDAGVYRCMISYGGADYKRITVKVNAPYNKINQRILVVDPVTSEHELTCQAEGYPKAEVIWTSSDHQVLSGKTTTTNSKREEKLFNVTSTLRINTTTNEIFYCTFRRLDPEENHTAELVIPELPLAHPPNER
# Assay: ELISA on coated antigen, column WT
# Experimental: as §1
row,Binder,absorbance at 490 nm
1,B3,2.5
2,B4,2.2
3,B5,2.5
4,B6,2.2

# Target: T3, ITGA6
# T3 construct: unrelated antigen column; all antibodies give 0.5 to 0.6
# T3 sequence (P23229 whole entry, species assumed, looked up): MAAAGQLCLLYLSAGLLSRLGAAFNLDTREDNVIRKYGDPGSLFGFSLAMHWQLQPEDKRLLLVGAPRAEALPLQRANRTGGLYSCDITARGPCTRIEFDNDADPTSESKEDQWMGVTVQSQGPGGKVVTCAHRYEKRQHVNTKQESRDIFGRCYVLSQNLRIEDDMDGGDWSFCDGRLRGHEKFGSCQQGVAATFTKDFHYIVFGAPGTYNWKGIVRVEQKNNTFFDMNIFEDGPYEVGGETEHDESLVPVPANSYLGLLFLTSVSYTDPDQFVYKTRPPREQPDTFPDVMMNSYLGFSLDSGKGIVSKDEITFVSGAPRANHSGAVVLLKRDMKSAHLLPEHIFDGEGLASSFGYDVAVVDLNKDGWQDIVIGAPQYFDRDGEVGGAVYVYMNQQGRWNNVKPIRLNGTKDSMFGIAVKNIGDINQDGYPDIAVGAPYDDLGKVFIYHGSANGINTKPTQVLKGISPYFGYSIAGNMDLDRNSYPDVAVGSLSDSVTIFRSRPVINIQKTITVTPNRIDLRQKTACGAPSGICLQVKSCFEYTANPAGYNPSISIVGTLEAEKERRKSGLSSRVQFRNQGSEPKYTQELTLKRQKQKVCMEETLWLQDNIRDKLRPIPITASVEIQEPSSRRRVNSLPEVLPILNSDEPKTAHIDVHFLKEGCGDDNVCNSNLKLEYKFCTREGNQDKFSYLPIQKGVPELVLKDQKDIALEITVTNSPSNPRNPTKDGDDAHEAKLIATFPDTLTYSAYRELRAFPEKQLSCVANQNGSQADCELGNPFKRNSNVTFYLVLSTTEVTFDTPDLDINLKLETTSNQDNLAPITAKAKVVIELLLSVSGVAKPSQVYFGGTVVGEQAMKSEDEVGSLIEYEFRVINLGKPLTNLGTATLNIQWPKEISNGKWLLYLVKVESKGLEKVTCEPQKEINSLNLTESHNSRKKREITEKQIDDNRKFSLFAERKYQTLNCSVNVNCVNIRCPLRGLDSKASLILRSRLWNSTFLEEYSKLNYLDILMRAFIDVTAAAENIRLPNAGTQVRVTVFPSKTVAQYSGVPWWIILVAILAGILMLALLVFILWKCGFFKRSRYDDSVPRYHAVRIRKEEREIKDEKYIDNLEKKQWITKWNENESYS
# Assay: ELISA on coated antigen, column ITGA6
row,Binder,absorbance at 490 nm
1,B3,0.5
2,B4,0.5
3,B5,0.5
4,B6,0.5
5,B7,0.6

# Target: mouse PD-L1 protein (mouse, UniProt Q9EP73 19-238, limits assumed)
# Sequence (Q9EP73 19-238 limits assumed): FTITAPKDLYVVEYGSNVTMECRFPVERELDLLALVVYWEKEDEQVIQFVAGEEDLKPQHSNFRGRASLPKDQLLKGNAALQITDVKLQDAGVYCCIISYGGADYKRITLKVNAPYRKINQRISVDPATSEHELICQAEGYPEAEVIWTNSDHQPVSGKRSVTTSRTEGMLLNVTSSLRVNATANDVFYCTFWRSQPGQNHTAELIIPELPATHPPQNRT
# Assay: ELISA on coated antigen, column mPD-L1
# Experimental: as §1
Binder,absorbance at 490 nm,binding result
B3,0.1,no binding
B4,1.3,
B5,0.2,no binding
B6,0.3,no binding
B7,0.1,no binding

# Target: T4, human PD-L1 over-expressed on HEK293E cells (human, UniProt Q9NZQ7 19-290)
# T4 construct: whole, on cells; also called human PD-L1 (NM_014143.2)
# T4 sequence (Q9NZQ7 19-290): as the sequence (Q9NZQ7 19-290 limits assumed) above
# Assay: flow cytometry on HEK293E/PD-L1 cells, FITC anti-human IgG, serial dilutions; fit table
# Experimental: 0.5 to 1×10⁶ cells per sample were prepared from the transformation cell pools highly expressing human PD-L1, and antibodies were serially diluted at a constant dilution rate and reacted with the prepared cells at 4° C. for 20 minutes. Then, the cells were washed three times with PBS (#LB001-02, Welgene) containing 2% fetal bovine serum and reacted at 4° C. for 20 minutes with an anti-human IgG antibody (#FI-3000, Vectorlabs) conjugated with a FITC (fluorescein isothiocyanate) fluorescent substance. Then, the cells were subjected to the same washing process as above and then suspended in 0.5 ml of PBS containing 2% FBS (#26140-079, Thermo Fisher) with an FACSCanto II flow cytometer (BD Biosciences, USA) as a flow cytometer (Table 11).
Binder,Bmax,Kd [nM]
B1,4400,2.42
B2,3990,1.98

# Target: T5, PD-L1-hFc (human, UniProt Q9NZQ7 19-238)
# T5 construct: extracellular domain; Made in HEK-293F cells, protein A purified; also called PD-L1 antigen; PD-L1 protein
# T5 sequence (Q9NZQ7 other isoform, or with tags, fused parts or gaps limits assumed): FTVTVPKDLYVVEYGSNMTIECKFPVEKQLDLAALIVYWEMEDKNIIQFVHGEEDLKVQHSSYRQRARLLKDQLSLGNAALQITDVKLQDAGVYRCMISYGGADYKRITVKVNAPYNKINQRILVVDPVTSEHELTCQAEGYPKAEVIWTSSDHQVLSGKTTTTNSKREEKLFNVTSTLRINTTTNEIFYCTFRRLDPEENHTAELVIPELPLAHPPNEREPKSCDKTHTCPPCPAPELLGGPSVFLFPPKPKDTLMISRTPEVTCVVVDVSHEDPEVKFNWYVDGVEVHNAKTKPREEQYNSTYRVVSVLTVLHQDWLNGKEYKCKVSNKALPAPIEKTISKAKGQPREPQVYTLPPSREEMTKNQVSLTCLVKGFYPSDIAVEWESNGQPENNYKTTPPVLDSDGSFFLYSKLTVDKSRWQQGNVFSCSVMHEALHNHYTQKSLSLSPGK
# Assay: kinetics on PD-L1-hFc (legend paragraph 40; text names ProteOn XPR36, the sheet's sensorgrams have a nm axis)
Binder,Kd [nM],koff [s⁻¹],kon [M⁻¹ s⁻¹]
B1,0.0158,2.62e-06,166000
B2,< 0.001,< 1e-07,240000
